{
  "source": "paper PMC2121028",
  "molecular_target": "SNF1/GAL4(1-147)",
  "sequence (P06782 whole entry, the tested form may be a part)": "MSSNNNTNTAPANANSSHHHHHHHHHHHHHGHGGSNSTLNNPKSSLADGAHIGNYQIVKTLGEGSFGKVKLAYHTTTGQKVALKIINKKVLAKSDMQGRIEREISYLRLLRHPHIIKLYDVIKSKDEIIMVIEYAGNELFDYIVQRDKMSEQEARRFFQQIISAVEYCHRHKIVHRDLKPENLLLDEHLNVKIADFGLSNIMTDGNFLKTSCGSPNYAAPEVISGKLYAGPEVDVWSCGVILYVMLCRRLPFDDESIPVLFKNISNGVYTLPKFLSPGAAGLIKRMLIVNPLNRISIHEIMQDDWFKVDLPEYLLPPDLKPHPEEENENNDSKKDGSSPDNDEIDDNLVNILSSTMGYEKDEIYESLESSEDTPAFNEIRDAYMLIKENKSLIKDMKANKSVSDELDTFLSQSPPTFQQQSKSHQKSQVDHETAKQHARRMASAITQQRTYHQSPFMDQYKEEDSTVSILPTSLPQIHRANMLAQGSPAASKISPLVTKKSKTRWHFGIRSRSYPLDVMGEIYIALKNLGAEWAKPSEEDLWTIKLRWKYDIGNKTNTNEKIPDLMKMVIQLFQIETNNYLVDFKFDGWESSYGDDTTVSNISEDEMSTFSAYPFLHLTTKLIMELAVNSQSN",
  "assay": "two-hybrid",
  "conditions": "scale: units",
  "data": [
    {"substance": "SNF4/GAL4(768-881) (natural protein)", "values": [
      {"measurement": "beta-galactosidase activity", "result": 500}
    ]}
  ]
}
